Patent US20140193430A1

Assays:
immobilized KIR2DS1 [1] = molecular target: immobilized KIR2DS1 (UniProt Q14954); assay: BIAcore competition on KIR2DS1 chip; first Ab DF200, second Ab (competitor) 1-7F9
[2] = molecular target: recombinant KIR2DL3 protein (entire extracellular domain, produced in E. coli, refolded) (human) (UniProt P43628); assay: BIAcore competition on KIR2DL3 chip; first Ab DF200, second Ab (competitor) 1-6F1
[3] = molecular target: recombinant KIR2DL3 protein (entire extracellular domain, produced in E. coli, refolded) (human) (UniProt P43628); assay: BIAcore, direct binding of second Ab to KIR2DL3 chip (field of first Ab 1-7F9)
[4] = molecular target: recombinant KIR2DL1 protein (entire extracellular domain, produced in E. coli, refolded) (human) (UniProt P43626); assay: BIAcore competition on KIR2DL1 chip; first Ab DF200, second Ab (competitor) 1-6F5
Sequence of recombinant KIR2DL1 protein (entire extracellular domain, produced in E. coli, refolded) (human) (P43626 22-245): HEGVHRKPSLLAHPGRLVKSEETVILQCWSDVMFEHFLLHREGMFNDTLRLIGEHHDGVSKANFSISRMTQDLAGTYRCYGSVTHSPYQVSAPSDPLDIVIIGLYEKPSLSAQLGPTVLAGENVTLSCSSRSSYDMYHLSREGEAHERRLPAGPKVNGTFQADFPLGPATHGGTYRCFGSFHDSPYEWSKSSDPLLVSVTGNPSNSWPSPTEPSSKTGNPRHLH

[5] = molecular target: recombinant KIR2DL1 protein (entire extracellular domain, produced in E. coli, refolded) (human) (UniProt P43626); assay: BIAcore, second Ab on KIR2DL1 chip with first Ab (competitor) 1-7F9 bound
[6] = molecular target: recombinant KIR2DL1 protein (entire extracellular domain, produced in E. coli, refolded) (human) (UniProt P43626); assay: BIAcore, second Ab on KIR2DL1 chip with first Ab (competitor) 1-6F5 bound
[7] = molecular target: recombinant KIR2DL3 protein (entire extracellular domain, produced in E. coli, refolded) (human) (UniProt P43628); assay: BIAcore, second Ab on KIR2DL3 chip with first Ab (competitor) 1-4F1 bound
[8] = molecular target: recombinant KIR2DL1 protein (entire extracellular domain, produced in E. coli, refolded) (human) (UniProt P43626); assay: BIAcore competition on KIR2DL1 chip; first Ab DF200, second Ab (competitor) Pan2D
[9] = molecular target: recombinant KIR2DL1 protein (entire extracellular domain, produced in E. coli, refolded) (human) (UniProt P43626); assay: BIAcore, second Ab on KIR2DL1 chip with first Ab (competitor) 1-6F1 bound
immobilized KIR2DS1 [10] = molecular target: immobilized KIR2DS1 (UniProt Q14954); assay: BIAcore, direct binding of second Ab to KIR2DS1 chip (field of first Ab 1-7F9)
[11] = molecular target: recombinant KIR2DL1 protein (entire extracellular domain, produced in E. coli, refolded) (human) (UniProt P43626); assay: BIAcore, direct binding of second Ab to KIR2DL1 chip (field of first Ab 1-6F5)
[12] = molecular target: recombinant KIR2DL3 protein (entire extracellular domain, produced in E. coli, refolded) (human) (UniProt P43628); assay: BIAcore competition on KIR2DL3 chip; first Ab DF200, second Ab (competitor) gl183
[13] = molecular target: recombinant KIR2DL3 protein (entire extracellular domain, produced in E. coli, refolded) (human) (UniProt P43628); assay: BIAcore competition on KIR2DL3 chip; first Ab DF200, second Ab (competitor) Pan2D
immobilized KIR2DS1 [14] = molecular target: immobilized KIR2DS1 (UniProt Q14954); assay: BIAcore, second Ab on KIR2DS1 chip with first Ab (competitor) 1-7F9 bound
[15] = molecular target: recombinant KIR2DL1 protein (entire extracellular domain, produced in E. coli, refolded) (human) (UniProt P43626); assay: BIAcore, direct binding of second Ab to KIR2DL1 chip (field of first Ab 1-7F9)
[16] = molecular target: recombinant KIR2DL1 protein (entire extracellular domain, produced in E. coli, refolded) (human) (UniProt P43626); assay: BIAcore competition on KIR2DL1 chip; first Ab DF200, second Ab (competitor) 1-4F1
[17] = molecular target: recombinant KIR2DL3 protein (entire extracellular domain, produced in E. coli, refolded) (human) (UniProt P43628); assay: BIAcore, direct binding of second Ab to KIR2DL3 chip (field of first Ab 1-6F5)
[18] = molecular target: recombinant KIR2DL3 protein (entire extracellular domain, produced in E. coli, refolded) (human) (UniProt P43628); assay: BIAcore, direct binding of second Ab to KIR2DL3 chip (field of first Ab 1-6F1)
[19] = molecular target: recombinant KIR2DL3 protein (entire extracellular domain, produced in E. coli, refolded) (human) (UniProt P43628); assay: BIAcore, direct binding of second Ab to KIR2DL3 chip (field of first Ab 1-4F1)
[20] = molecular target: recombinant KIR2DL3 protein (entire extracellular domain, produced in E. coli, refolded) (human) (UniProt P43628); assay: BIAcore, second Ab on KIR2DL3 chip with first Ab (competitor) 1-7F9 bound
immobilized KIR2DS1 [21] = molecular target: immobilized KIR2DS1 (UniProt Q14954); assay: BIAcore competition on KIR2DS1 chip; first Ab DF200, second Ab (competitor) 1-4F1
[22] = molecular target: KIR2DL1(R131W)-hFc (human) (UniProt P43626); assay: ELISA, KIR2DL1(R131W)-hFc captured via goat anti-human antibodies, mAb titrated, peroxidase anti-mouse, A450 [panel DF200]
Sequence of KIR2DL1(R131W)-hFc (human) (P43626 22-245 R152W): as the sequence (P43626 22-245) above, with R131W counted along it

[23] = molecular target: recombinant KIR2DL1 protein (entire extracellular domain, produced in E. coli, refolded) (human) (UniProt P43626); assay: BIAcore competition on KIR2DL1 chip; first Ab DF200, second Ab (competitor) 1-6F1
[24] = molecular target: recombinant KIR2DL3 protein (entire extracellular domain, produced in E. coli, refolded) (human) (UniProt P43628); assay: BIAcore competition on KIR2DL3 chip; first Ab DF200, second Ab (competitor) 1-7F9
[25] = molecular target: recombinant KIR2DL1 protein (entire extracellular domain, produced in E. coli, refolded) (human) (UniProt P43626); assay: BIAcore competition on KIR2DL1 chip; first Ab DF200, second Ab (competitor) 1-7F9
immobilized KIR2DS1 [26] = molecular target: immobilized KIR2DS1 (UniProt Q14954); assay: BIAcore competition on KIR2DS1 chip; first Ab DF200, second Ab (competitor) Pan2D
[27] = molecular target: recombinant KIR2DL3 protein (entire extracellular domain, produced in E. coli, refolded) (human) (UniProt P43628); assay: BIAcore, second Ab on KIR2DL3 chip with first Ab (competitor) 1-6F5 bound
[28] = molecular target: recombinant KIR2DL3 protein (entire extracellular domain, produced in E. coli, refolded) (human) (UniProt P43628); assay: BIAcore, second Ab on KIR2DL3 chip with first Ab (competitor) 1-6F1 bound
[29] = molecular target: KIR2DL1-hFc (complete extra-cellular domain of KIR2DL1, amino acids H1-H224, wild-type, fused to human Fc) (human) (UniProt P43626); assay: ELISA, KIR2DL1-hFc captured via goat anti-human antibodies, mAb titrated, peroxidase anti-mouse, A450 [panel DF200]
Sequence of KIR2DL1-hFc (complete extra-cellular domain of KIR2DL1, amino acids H1-H224, wild-type, fused to human Fc) (human) (P43626 22-245): as the sequence (P43626 22-245) above

[30] = molecular target: recombinant KIR2DL3 protein (entire extracellular domain, produced in E. coli, refolded) (human) (UniProt P43628); assay: BIAcore competition on KIR2DL3 chip; first Ab DF200, second Ab (competitor) 1-6F5
[31] = molecular target: recombinant KIR2DL1 protein (entire extracellular domain, produced in E. coli, refolded) (human) (UniProt P43626); assay: BIAcore, direct binding of second Ab to KIR2DL1 chip (field of first Ab 1-6F1)
[32] = molecular target: recombinant KIR2DL3 protein (entire extracellular domain, produced in E. coli, refolded) (human) (UniProt P43628); assay: BIAcore competition on KIR2DL3 chip; first Ab DF200, second Ab (competitor) 1-4F1
[33] = molecular target: recombinant KIR2DL1 protein (entire extracellular domain, produced in E. coli, refolded) (human) (UniProt P43626); assay: BIAcore competition on KIR2DL1 chip; first Ab DF200, second Ab (competitor) EB6
[34] = molecular target: recombinant KIR2DL3 protein (entire extracellular domain, produced in E. coli, refolded) (human) (UniProt P43628); assay: BIAcore competition on KIR2DL3 chip; first Ab gl183, second Ab (competitor) DF200
[35] = molecular target: recombinant KIR2DL3 protein (entire extracellular domain, produced in E. coli, refolded) (human) (UniProt P43628); assay: BIAcore competition on KIR2DL3 chip; first Ab gl183, second Ab (competitor) Pan2D
[36] = molecular target: recombinant KIR2DL3 protein (entire extracellular domain, produced in E. coli, refolded) (human) (UniProt P43628); assay: BIAcore competition on KIR2DL3 chip; first Ab gl183, second Ab (competitor) 1-4F1
[37] = molecular target: recombinant KIR2DL3 protein (entire extracellular domain, produced in E. coli, refolded) (human) (UniProt P43628); assay: BIAcore competition on KIR2DL3 chip; first Ab gl183, second Ab (competitor) 1-7F9
[38] = molecular target: recombinant KIR2DL3 protein (entire extracellular domain, produced in E. coli, refolded) (human) (UniProt P43628); assay: BIAcore competition on KIR2DL3 chip; first Ab gl183, second Ab (competitor) 1-6F1

Sequence of recombinant KIR2DL3 protein (entire extracellular domain, produced in E. coli, refolded) (human) (P43628 22-245): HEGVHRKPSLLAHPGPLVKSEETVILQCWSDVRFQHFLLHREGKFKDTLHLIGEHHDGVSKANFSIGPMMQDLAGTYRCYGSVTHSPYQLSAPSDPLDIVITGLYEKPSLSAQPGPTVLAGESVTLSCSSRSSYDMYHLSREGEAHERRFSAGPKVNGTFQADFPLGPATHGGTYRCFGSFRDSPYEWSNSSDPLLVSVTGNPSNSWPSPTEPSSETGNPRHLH
Sequence of immobilized KIR2DS1 (Q14954 22-245 limits assumed): as the sequence (P43626 22-245) above, with T70K, V90L, L114P, P154T, D163N, H182R, K216E counted along it

## monoclonal antibody DF200 produced by hybridoma DF200
Immobilized KIR2DS1 [1]
  % inhibition of second Ab binding by first Ab: 15%
[2]
  % inhibition of second Ab binding by first Ab: 16%
[3]
  RU, direct binding (RU1): 770 RU
[4]
  % inhibition of second Ab binding by first Ab: 15%
[5]
  RU, binding with first Ab present (RU2): 545 RU
[6]
  RU, binding with first Ab present (RU2): 290 RU
[7]
  RU, binding with first Ab present (RU2): 210 RU
[8]
  % inhibition of second Ab binding by first Ab: 80%
[9]
  RU, binding with first Ab present (RU2): 310 RU
Immobilized KIR2DS1 [10]
  RU, direct binding (RU1): 900 RU
[11]
  RU, direct binding (RU1): 350 RU
[12]
  % inhibition of second Ab binding by first Ab: 20%
[13]
  % inhibition of second Ab binding by first Ab: 75%
Immobilized KIR2DS1 [14]
  RU, binding with first Ab present (RU2): 1090 RU
[15]
  RU, direct binding (RU1): 600 RU
[16]
  % inhibition of second Ab binding by first Ab: 92%
[17]
  RU, direct binding (RU1): 800 RU
[18]
  RU, direct binding (RU1): 790 RU
[19]
  RU, direct binding (RU1): 1140 RU
[20]
  RU, binding with first Ab present (RU2): 450 RU
Immobilized KIR2DS1 [21]
  % inhibition of second Ab binding by first Ab: 87%
[22]
  EC50 (read off the curve): 20 nM
[23]
  % inhibition of second Ab binding by first Ab: 15%
[24]
  % inhibition of second Ab binding by first Ab: 62%
[25]
  % inhibition of second Ab binding by first Ab: 27%
Immobilized KIR2DS1 [26]
  % inhibition of second Ab binding by first Ab: 70%
[27]
  RU, binding with first Ab present (RU2): 760 RU
[28]
  RU, binding with first Ab present (RU2): 760 RU
[29]
  EC50 (read off the curve): 20 nM
[30]
  % inhibition of second Ab binding by first Ab: 4%
[31]
  RU, direct binding (RU1): 350 RU
[32]
  % inhibition of second Ab binding by first Ab: 75%
[33]
  % inhibition of second Ab binding by first Ab: 90%

## GL183 (IgG1 anti KIR2DL3) (antibody)
[34]
  % inhibition of second Ab binding by first Ab: 8%
[3]
  RU, direct binding (RU1): 800 RU
[35]
  % inhibition of second Ab binding by first Ab: 40%
[7]
  RU, binding with first Ab present (RU2): 330 RU
[36]
  % inhibition of second Ab binding by first Ab: 75%
[37]
  % inhibition of second Ab binding by first Ab: 76%
[18]
  RU, direct binding (RU1): 620 RU
[19]
  RU, direct binding (RU1): 1240 RU
[20]
  RU, binding with first Ab present (RU2): 200 RU
[28]
  RU, binding with first Ab present (RU2): 570 RU
[38]
  % inhibition of second Ab binding by first Ab: 18%
